The values that follow come from article PMC7064771, “Repurposed Drugs That Block the Gonococcus-Complement Receptor 3 Interaction Can Prevent and Cure Gonococcal Infection of Primary Human Cervical Epithelial Cells” (mBio, 2020).

In assay [1] the target is recombinant human CR3 I-domain (I-domain of CD11b) (human). As to the kind of experiment: SPR. For orientation: SPR reads the build-up and loss of mass on a sensor chip optically.
Assay [2] addresses recombinant human complement receptor 3 (integrin αMβ2) (human) (UniProt P11215). The experiment in a line: SPR.

Sequence of N. gonorrhoeae MS11 wild-type pilin (PilE) modified with the Gal(α1-3)diNAcBac disaccharide (P02974 8-165 limits assumed): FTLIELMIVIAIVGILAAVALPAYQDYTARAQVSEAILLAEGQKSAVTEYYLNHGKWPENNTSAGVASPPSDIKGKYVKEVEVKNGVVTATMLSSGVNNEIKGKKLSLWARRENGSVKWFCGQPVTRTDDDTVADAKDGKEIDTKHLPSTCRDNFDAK

Broadly, the Kd is the free concentration of one partner at which half of the binding sites on the other are occupied at equilibrium, for simple one-to-one binding. For the substance “N. gonorrhoeae MS11 wild-type pilin (PilE) modified with the Gal(α1-3)diNAcBac disaccharide (from UniProt P02974 8-165) (natural protein)”, the Kd in assay [1] was 0.349 µM; in assay [2], 0.907 µM.
